According to patent US20070172423A1, “Composition and method for modulating vasculogenesis for angiogenesis” (priority 1998, published 2007):

How the values were obtained:
human VEGFR-2 = molecular target: T1, human VEGFR-2 (Homo sapiens, UniProt P35968); test: Binding to soluble VEGFR-2-Ig fusion protein; conditions: 35S-labeled protein in conditioned medium from 293 cells, precipitation with Ig-fusion protein
T1 construct: soluble Ig-fusion proteins containing the extracellular domains of human VEGFR-1, VEGFR-2 and VEGFR-3; made in house; host or cells: human 293 EBNA cells, transient expression
T1 sequence (P35968 20-764 limits assumed): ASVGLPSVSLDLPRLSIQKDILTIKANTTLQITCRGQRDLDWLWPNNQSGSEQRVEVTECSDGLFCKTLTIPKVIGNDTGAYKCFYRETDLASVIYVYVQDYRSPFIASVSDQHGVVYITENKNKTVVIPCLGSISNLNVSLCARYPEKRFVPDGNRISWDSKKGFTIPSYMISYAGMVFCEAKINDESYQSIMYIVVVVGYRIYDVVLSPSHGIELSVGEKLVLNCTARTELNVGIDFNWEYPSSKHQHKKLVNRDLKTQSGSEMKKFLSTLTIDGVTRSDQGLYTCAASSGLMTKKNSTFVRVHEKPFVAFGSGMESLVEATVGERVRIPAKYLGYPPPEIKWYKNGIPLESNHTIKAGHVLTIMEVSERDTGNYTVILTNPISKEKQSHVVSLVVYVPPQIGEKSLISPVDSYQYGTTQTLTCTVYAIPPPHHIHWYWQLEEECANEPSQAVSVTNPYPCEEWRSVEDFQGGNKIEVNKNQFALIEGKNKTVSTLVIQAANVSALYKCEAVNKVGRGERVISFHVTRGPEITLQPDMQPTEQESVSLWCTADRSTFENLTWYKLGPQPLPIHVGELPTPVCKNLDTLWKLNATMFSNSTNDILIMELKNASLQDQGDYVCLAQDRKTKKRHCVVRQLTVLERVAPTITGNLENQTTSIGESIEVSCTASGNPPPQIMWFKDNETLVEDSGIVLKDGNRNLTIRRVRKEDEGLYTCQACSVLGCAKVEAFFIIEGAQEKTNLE
Method: To assess the interactions between full length and truncated PDGF-C and the VEGF receptors, full length and truncated PDGF-C were tested for their capacity to bind to soluble Ig-fusion proteins containing the extracellular domains of human VEGFR-1, VEGFR-2 and VEGFR-3 (Olofsson et al., Proc. Natl. Acad. Sci. USA, 1998 95:11709-11714). The fusion proteins, designated VEGFR-1-Ig, VEGFR-2-Ig and VEGFR-3-Ig, were transiently expressed in human 293 EBNA cells. All Ig fusion proteins were human VEGFRs. Cells were incubated for 24 hours after transfection, washed with Dulbecco's Modified Eagle Medium (DMEM) containing 0.2% bovine serum albumin and starved for 24 hours. The fusion proteins were then precipitated from the clarified conditioned medium using protein A-Sepharose beads (Pharmacia). The beads were combined with 100 microliters of 10× binding buffer (5% bovine serum albumin, 0.2% Tween 20 and 10 µg/ml heparin) and 900 microliter of conditioned medium from 293 cells that had been transfected with mammalian expression plasmids encoding full length or truncated PDGF-C or control vector, then metabolically labeled with ^35S-cysteine and methionine (Promix, Amersham) for 4 to 6 hours. […] Labeled proteins that were bound to the Ig-fusion proteins were analyzed by SDS-PAGE under reducing conditions. Radiolabeled proteins were detected using a phosphorimager analyzer.

[1] = test system: ischemic gastrocnemius muscle; test: Hind limb ischemia mouse model (femoral artery ligation); format: in vivo
Source text: To further verify the angio/arteriogenic activity of PDGF-CC in vivo, the effect of PDGF-CC in an established mouse model of hind limb ischemia is investigated (Luttun et al., Nat Med, 2002 1:1). PDGFR-α expression was quantified by RNAse protection analysis in the gastrocnemius muscle, which becomes highly ischemic after ligation of the femoral artery (Deindl et al., Circ Res, 2001 89:779-86; Couffinhal et al., American Journal of Pathology, 1998 152:1667-1679). Two days after femoral artery ligation, when a fraction of myocytes died due to ischemic necrosis, PDGFR-α transcript levels decreased to 76% of those found in normal muscles (FIG. 37a). […] Revascularization of the ischemic gastrocnemius muscle, which only occurred in those regions where regenerating muscle replaced the necrotic avascular muscle, was scored after continuous delivery, by osmotic minipump, of 4.5 μg PDGF-CC per day for one week after femoral artery ligation. […] PDGF-CC also enlarged the second-generation collateral side branches in the adductor muscle ([…] after saline versus […] after PDGF-CC; N=10; P=0.05). […] Thus, PDGF-CC stimulates revascularization in mouse models of both heart and limb ischemia.

PDGF alpha receptors [2] = molecular target: T2, PDGF alpha receptors (Homo sapiens, UniProt P16234); test: Competition with 125I-PDGF-BB for binding to PAE-1 cells expressing PDGF alpha-receptor; set-up: expressed in transfected cells; conditions: 5 ng/ml 125I-PDGF-BB tracer, on ice 90 minutes
T2 sequence (P16234 24-1089): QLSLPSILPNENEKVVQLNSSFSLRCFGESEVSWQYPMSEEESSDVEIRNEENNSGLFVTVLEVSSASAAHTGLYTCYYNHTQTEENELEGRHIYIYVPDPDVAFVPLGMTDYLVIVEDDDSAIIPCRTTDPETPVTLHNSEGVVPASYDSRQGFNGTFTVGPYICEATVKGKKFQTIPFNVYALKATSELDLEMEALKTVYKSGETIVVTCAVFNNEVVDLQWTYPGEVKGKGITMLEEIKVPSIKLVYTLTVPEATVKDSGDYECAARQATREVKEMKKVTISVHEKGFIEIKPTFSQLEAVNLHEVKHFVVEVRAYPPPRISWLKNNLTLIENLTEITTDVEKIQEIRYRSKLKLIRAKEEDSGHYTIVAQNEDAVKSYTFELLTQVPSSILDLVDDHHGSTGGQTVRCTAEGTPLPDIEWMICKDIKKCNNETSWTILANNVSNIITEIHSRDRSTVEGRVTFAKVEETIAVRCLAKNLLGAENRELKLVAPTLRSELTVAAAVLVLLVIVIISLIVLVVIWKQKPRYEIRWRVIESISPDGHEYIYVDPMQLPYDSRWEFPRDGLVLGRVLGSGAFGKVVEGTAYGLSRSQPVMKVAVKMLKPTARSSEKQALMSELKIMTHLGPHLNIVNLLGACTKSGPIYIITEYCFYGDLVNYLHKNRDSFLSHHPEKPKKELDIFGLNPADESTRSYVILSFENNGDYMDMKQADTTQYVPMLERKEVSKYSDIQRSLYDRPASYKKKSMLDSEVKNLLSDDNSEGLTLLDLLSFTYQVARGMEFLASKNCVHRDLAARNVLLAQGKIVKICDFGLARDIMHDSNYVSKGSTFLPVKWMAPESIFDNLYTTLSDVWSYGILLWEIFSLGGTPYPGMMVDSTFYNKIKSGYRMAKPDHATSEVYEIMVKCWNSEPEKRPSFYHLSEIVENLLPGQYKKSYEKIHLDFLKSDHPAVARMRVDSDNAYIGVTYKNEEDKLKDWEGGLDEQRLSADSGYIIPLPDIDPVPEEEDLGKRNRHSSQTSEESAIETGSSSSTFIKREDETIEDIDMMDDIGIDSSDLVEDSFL
Method: Next, full length and truncated PDGF-C were tested for their capacity to bind to human PDGF receptors alpha and beta by analyzing their abilities to compete with PDGF-BB for binding to PDGF receptors. The binding experiments were performed on porcine aortic endothelial-1 (PAE-1) cells stably expressing the human PDGF receptors alpha and beta (Eriksson et al., EMBO J, 1992, 11, 543-550). Binding experiments were performed essentially as in Heldin et al. (EMBO J, 1988, 7:1387-1393). Different concentrations of human full-length and truncated PDGF-C, or human PDGF-BB were mixed with 5 ng/ml of ^125I-PDGF-BB in binding buffer (PBS containing 1 mg/ml of bovine serum albumin). Aliquots were incubated with the receptor expressing PAE-1 cells plated in 24-well culture dishes on ice for 90 minutes. After three washes with binding buffer, cell-bound 125]-PDGF-BB was extracted by lysis of cells in 20 mM Tris-HCl, pH 7.5, 10% glycerol, 1% Triton X-100. The amount of cell bound radioactivity was determined in a gamma-counter. A standard curve for the binding of ^125I-labeled PDGF BB homodimers to PAE-1 cells expressing PDGF alpha-receptor is shown in FIG. 18.

PDGF alpha receptors [3] = molecular target: T2, PDGF alpha receptors; test: PDGF alpha-receptor phosphorylation in PAE cells; format: cell-based; set-up: expressed in transfected cells; conditions: 100 ng/ml
Method: To test if PDGF-C causes increased phosphorylation of the PDGF alpha-receptor, full length and truncated PDGF-C were tested for their capacity to bind to the PDGF alpha-receptor and stimulate increased phosphorylation. Serum-starved porcine aortic endothelial (PAE) cells stably expressing the human PDGF alpha-receptor were incubated on ice for 90 minutes with PBS supplemented with 1 mg/ml BSA and 10 ng/ml of PDGF-AA, 100 ng/ml of full length human PDGF-CC homodimers (flPDGF-CC), 100 ng/ml of truncated PDGF-CC homodimers (cPDGF-CC), or a mixture of 10 ng/ml of PDGF-AA and 100 ng/ml of truncated PDGF-CC. Full length and truncated PDGF-CC homodimers were produced as described above. Sixty minutes after the addition of the polypeptides, the cells were lysed in lysis buffer (20 mM tris-HCl, pH 7.5, 0.5% Triton X-100, 0.5% deoxycholic acid, 10 mM EDTA, 1 mM orthovanadate, 1 mM PMSF 1% Trasylol). […] Bound antibodies were detected using enhanced chemiluminescence (ECL, Amersham Inc). The filters were then stripped and reprobed with the PDGF alpha-receptor rabbit antisera, and the amount of receptors was determined by incubation with horseradish peroxidase-conjugated anti-rabbit antibodies. Bound antibodies were detected using enhanced chemiluminescence (ECL, Amersham Inc). […]

[4] = 4.5 μg per day for one week after femoral artery ligation

B1: PDGF-CC: recombinant human PDGF-CC core domain homodimer, residues 230-345 of full-length PDGF-C (SEQ ID NO:40), produced in baculovirus infected insect cells (protein)
chain: GRKSRVVDLNLLTEEVRLYSCTPRNFSVSIREELKRTDTIFWPGCLLVKRCGGNCACCLHNCNECQCVPSKVTKKYHEVLQLRPKTGVRGLHKSLTDVALEHHEECDCVCRGSTGG
modifications: homodimer; PDGF-C core domain
interaction with VEGFR-2-Ig (human VEGFR-2): failed to show any interaction
hemorrhage, edema or fibrosis in treated limbs ([1]; 4.5 μg per day for one week): No signs of hemorrhage, edema or fibrosis
angiogenesis (capillary density) [1, 4]: increased
arteriogenesis (density of SMA+ vessels) [1, 4]: enhanced
extent of ischemic muscle necrosis [1, 4]: reduced
skeletal muscle regeneration [1, 4]: enhanced
second-generation collateral side branches in the adductor muscle ([1]; after femoral artery ligation, N=10): 920±100 μm^3
competition for binding to the PDGF alpha-receptor (PDGF alpha receptors [2]): efficiently competed
PDGF alpha-receptor tyrosine phosphorylation (PDGF alpha receptors [3]): efficiently induced
